According to the supplement of paper PMC9170038:

System: MS2 coat protein
Assay: apparent KD of MS2 coat protein; designed switch direction (-1 OFF switch, 1 ON switch): -1; higher = weaker reporter binding
Method in brief: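 Designed RNA switches were transcribed on Illumina chips by stalled E. coli RNA polymerase and titrated with SNAP-549-labelled MS2 coat protein from 0.7 or 1.5 nM, doubling to 3 µM. Step length ran from 0.8–1.5 h at the lowest concentration to 10–20 min at the highest. The apparent KD is the median over clusters for each design, from curve-fitted normalised cluster fluorescence.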

[1] = input ligand: microRNA oligo, concentration not stated
[2] = Eterna round: R95, input ligand: FMN 200 uM
[3] = Eterna round: R95, input ligand: microRNA oligo, concentration not stated
[4] = Eterna round: R95, input ligand: none

Row | Sequence | apparent KD of MS2 coat protein (input ligand: FMN 200 uM) [nM] | apparent KD of MS2 coat protein [1] [nM] | apparent KD of MS2 coat protein (input ligand: none) [nM] | apparent KD of MS2 coat protein [2] [nM] | apparent KD of MS2 coat protein [3] [nM] | apparent KD of MS2 coat protein [4] [nM]
1 | UACAUGAGGAUCACCCAUGUUUUGUCGUGUUUGGUACCCGUUUAGGAUAUCGUGUUAUUGGAUCGCGAGAAGGAGAGUAUCUUU [Excl-NG3-LRO08] (Eterna round: R96, puzzle: Exclusion NG 3) | 26.8 | 26 | 31.7 | – | – | –
2 | UACCGGCGGACCGAGGCUUUUUGCUCGUCUUAUGCUACGACAUGAGGAUCACCCAUGUGGUGGUGGUCCGUUGUAGU [JL ViennaUCT Bitein mod 7] (puzzle: Sensor v3, turn-off variant 2) | – | – | – | 106 | 13.3 | 122
3 | UACCUGAGGCAAAGCUUUAGGUAAACAUGAGGAUCACCCAUGUAGGAUAUGGUAGGCAAAGCUUACCAGAAGGACAUGAAAAUU [Mat - Exclusion NG 3 - Mod of JL - D36] (Eterna round: R96, puzzle: Exclusion NG 3) | 333 | 53.3 | 87.8 | – | – | –
4 | UACCUGAGGCUUUGCUUUAGGUUUACAUGAGGAUCACCCAUGUAGGAUAUGGUAGGCUUUGCUUACCAGAAGGACAUGUUAAUU [JL ENG3 1.08] (Eterna round: R96, puzzle: Exclusion NG 3) | 190 | 64.9 | 59.9 | – | – | –
5 | UACGAAGAGUGAGGAUAUGUGCGACAAAGUUGCACAGAAGGCACAUGAGGAUCACCCAUGUAAGCUAGGUCGAAAGACCUAGCG [Omei Exc(NG)1 Av4] (Eterna round: R96, puzzle: Exclusion NG 1) | 130 | 21 | 44.7 | – | – | –
6 | UACGAGCUAGGAUAUGCUUUGGGCUCGCUUUCCUUCGAUAAACUUGAGGAUCACCCAAGUAGAAGGAGCUUGUA [Mod 33 - Jieux - Exclusion 2] (Eterna round: R97, puzzle: Exclusion 2) | 61.5 | – | 25.9 | – | – | –
7 | UACUGGACAGGAUAUGUACUUGAGCACUUGAGGAUCACCCAAGUCAUCAAGUACUCAGGCACAGAAGGGUUAAUUU [jl-ex5.4.64 ViennaUCT mod] (Eterna round: R97, puzzle: Exclusion 5) | 330 | – | 129 | – | – | –
8 | UACUUCCGAGGAUAUACAUGAGGAUCACCCAUGUGCUUCAGCAUUUUUUGAUGCAUGGGUAGAAGGCGGUAGUU [LRO-Excl3-17] (puzzle: Exclusion 3) | – | – | – | – | 299 | –
9 | UACUUGUUAGGAUAUCUUACAUUUGCAUCAUAGCAACUAUUGGAGAAGGGACAUGAGGAUCACCCAUGUUUGGU [tap-tap-tappy13] (Eterna round: R97, puzzle: Exclusion 4) | 48.4 | – | 41.9 | – | – | –
10 | UAGAAACAUGAGGAUCACCCAUGUGAGGAUAUGAAAAAGAAAAGAAAAGAAAGAAGAAUCAGAAGGCACAAAGC [salish99-ex1_r3_092] (puzzle: Exclusion 1) | – | – | – | 28.6 | 17.7 | 36.6
11 | UAGAAGGUAGGAUAUACGAAUAAAUAGGGUAGAAUAAUAACACAUGAGGAUCACCCAUGUAGAAGGACCAAGAU [Mat - Exclusion 2 - Mod of my Tesla design - D30] (puzzle: Exclusion 2) | – | – | – | 42.9 | 20.7 | 20.7
12 | UAGAAGGUAGGAUAUACGAAUAAAUAGGGUAGUAAGAAUACACAUGAGGAUCACCCAUGUAGAAGGACCAAGAU [Mat - Exclusion 2 - Mod of my Tesla design - D32] (puzzle: Exclusion 2) | – | – | – | 43.1 | 19.5 | 20.9
13 | UAGAAGUUCAACGAGUGAAACAUGAGGAUCACCCAUGUGGUGGUAAGGAACAAGCUUUUUGCACGUACUUAUGAGGA [JR_SV3TOV1_Sub004] (puzzle: Sensor v3, turn-off variant 1) | – | – | – | 287 | 400 | 452
14 | UAGAAUCGAGGAUAUACAUGAGGAUCACCCAUGUGUGGCCAUACUGUGUGGUCGUCAGGUAGAAGGCGAUUAUA [Exclusion 3 - Mod of Jieux's Gilly Gone Silly 23] (puzzle: Exclusion 3) | – | – | – | – | 45.4 | –
15 | UAGAUACAUGAGGAUCACCCAUGUGAGGAUAUGAGUCAGUCACGGUGACGUGGCUGACUCAGAAGGCACAAAGG [Mat - Exclusion 1 - JL Mod - D36] (Eterna round: R97, puzzle: Exclusion 1) | 365 | – | 202 | – | – | –
16 | UAGAUGGGAGGAUAUACAUAGAUACAGAUUCGUGUAGUGCUACAUGAGGAUCACCCAUGUAGAAGGCCCGUCUU [JL-ex2-2.21 Mayanne mod] (puzzle: Exclusion 2) | – | – | – | – | 15.2 | –
17 | UAGAUGGGAGGAUAUACGUAGAUGCAGAUUCGUGUGGUGCUACAUGAGGAUCACCCAUGUAGAAGGCCCGUCUU [JL-ex2-2.24 Mayanne mod] (puzzle: Exclusion 2) | – | – | – | – | 15.4 | –

Row | Sequence | apparent KD of MS2 coat protein (input ligand: FMN 200 uM) [nM] | apparent KD of MS2 coat protein [1] [nM] | apparent KD of MS2 coat protein (input ligand: none) [nM] | apparent KD of MS2 coat protein [2] [nM] | apparent KD of MS2 coat protein [3] [nM] | apparent KD of MS2 coat protein [4] [nM]
18 | UAGAUGGGAGGAUAUGCGUAGAUACGGAUUCGUGUGGUGCUACAUGAGGAUCACCCAUGUAGAAGGCCCGUCUU [JL-ex2-2.27 Mayanne mod] (puzzle: Exclusion 2) | – | – | – | – | 12 | –
19 | UAGAUGUGAGGAUAUGGUAAAGAUAGAAUGAUGAAAGAACUCCAGAAGGCACAUGAGGAUCACCCAUGUAGAUG [Mat - Exclusion 4 - Mod of JL - D29] (puzzle: Exclusion 4) | – | – | – | – | 22.3 | –
20 | UAGCACGGAGGAUAUUGGCUCGCACACAUGAGGAUCACCCAUGUGACUUUAUACUUCCGCUAAGAAGGCCGUGUGG [Eternabot (L1) Solution 93] (Eterna round: R97, puzzle: Exclusion 5) | 13.2 | – | 14.3 | – | – | –
21 | UAGCCAUCGUGAGAUGGCUUUCAUACAUGAGGAUCACCCAUGUAGGAUAUCGAUUGCUUUGCAGUCGAGAAGGGCAUGUAUAAU [JL ENG3 3.95] (Eterna round: R96, puzzle: Exclusion NG 3) | 34.8 | 22.8 | 29.1 | – | – | –
22 | UAGCCCAACUCAUCCUCAUUGAGACAUGAGGAUCACCCAUGUGAGGAUAUUGCGUCGAGAGGACACGAGAAGGCACAAUAGUUU [Eternabot solution 17] (Eterna round: R96, puzzle: Exclusion NG 3) | 216 | 88.1 | 109 | – | – | –
23 | UAGGGCUGCGGAGGAUAUCCAUAGUGGGCCGGUCGAAGCAUGAGACAUGAGGAUCACCCAUGUCUGGAGAAGGCUGAGCCCUCA [Lequcele] (Eterna round: R96, puzzle: Exclusion NG 2) | 20.8 | 12.1 | 14.1 | – | – | –
24 | UAGGGUAAGUCAUGUACGAACAUGAGGAUCACCCAUGUAGCUGAAAUAAACCUCGUCCAAAUCUUUCCGUAAAAUGU [Zavein] (Eterna round: R96, puzzle: Sensor v2, turn-off variant) | 271 | 211 | 295 | – | – | –
25 | UAGGUGUGAGGAUAUGGUAAAGAUAAAAUGAUGAAAGAACUCCAGAAGGCACAUGAGGAUCACCCAUGUAGAUG [Mat - Exclusion 4 - Mod of JL - D33] (puzzle: Exclusion 4) | – | – | – | – | 28.3 | –
26 | UAGUAUCUGCAGGAUAUCAGUGGAAAACACGUAUGAGAAGGGCAGACAUGAGGAUCACCCAUGUAAAGGGUCCG [BotMod 10 - Jieux - Exclusion 6] (Eterna round: R97, puzzle: Exclusion 6) | 541 | – | 173 | – | – | –
27 | UAGUGACAUGAGGAUCACCCAUGUGAGGAUAUAGUAGGAGUAAAGAGGAAAGAGAGAACUAGAAGGCACAGUGA [JR_Exclu1_Sub031] (puzzle: Exclusion 1) | – | – | – | 80 | 48.4 | 51.4
28 | UAGUUGCUCAGGGAGUGUGACAUGAGGAUCACCCAUGUGGUGGUAGGGAACAAGCUUUUUGCACGUACUUAUGAGUU [JR_SV3TOV1_Sub008] (puzzle: Sensor v3, turn-off variant 1) | – | – | – | 150 | 42.5 | 184
29 | UAUAAAACAUAGGAUAUCGAAUUAAUCAUUUAACGAGAAGGAUGAACAUGAGGAUCACCCAUGUGGUAUCAUGG [Mat - Exclusion 6 - JL Mod - D9] (puzzle: Exclusion 6) | – | – | – | 333 | 61.5 | 129
30 | UAUAACCGAGGAUAUACAUGAGGAUCACCCAUGUAAUGUAGUAUAAUAUAUGUAAAAUGUAGAAGGUGGGAUGU (Eterna round: R97, puzzle: Exclusion 3) | 44.3 | – | 54.9 | – | – | –
31 | UAUAACCGAGGAUAUACAUGAGGAUCACCCAUGUAAUGUAGUAUAAUGUAUGUAAGAUGUAGAAGGUGGGAUGU (Eterna round: R97, puzzle: Exclusion 3) | 56.2 | – | 45.2 | – | – | –
32 | UAUAAGGUAGGAUAUACGAAUAAAUAGGGUAGAAUAAUAACACAUGAGGAUCACCCAUGUAGAAGGACCAAUAU [Mat - Exclusion 2 - Mod of my Tesla design - D28] (puzzle: Exclusion 2) | – | – | – | 39.3 | 21.1 | 20.3
33 | UAUACACAUGAGGAUCACCCAUGUGAGGAUAUGCGUACGUUGUCCGUAGGCGACGUGCGCAGAAGGCGCAAGGU [Mat - Mod of JL D95] (puzzle: Exclusion 1) | – | – | – | – | 61.4 | –
34 | UAUACUAGAUAGGAUAUACUUUAUUUUUUUUUCGUAGAAGGAUCUACAUGAGGAUCACCCAUGUUAACAGCAGU [JR_E6_Sub008] (puzzle: Exclusion 6) | – | – | – | – | 55.1 | –
